Laboratory results published in publication PMC3272479 (Nature structural & molecular biology, 2012).

Biological target: the molecule itself
Test: crystal structure

B1: KirBac3.1 S129R mutant channel (natural protein)
chain: MTGGMKPPARKPRILNSDGSSNITRLGLEKRGWLDDHYHDLLTVSWPVFITLITGLYLVTNALFALAYLACGDVIENARPGSFTDAFFFSVQTMATIGYGKLIPIGPLANTLVTLEALCGMLGLAVAARLIYARFTRPTAGVLFSSRMVISDFEGKPTLMMRLANLRIEQIIEADVHLVLVRSEISQEGMVFRRFHDLTLTRSRSPIFSLSWTVMHPIDHHSPIYGETDETLRNSHSEFLVLFTGHHEAFAQNVHARHAYSCDEIIWGGHFVDVFTTLPDGRRALDLGKFHEIAQ
In the case of B1, the “stoichiometry N” value is reported as 4.
